Tests used:
[1] = molecular target: T1, human PD-L1 expressed on cells (human, UniProt Q9NZQ7 19-290); test: flow cytometry on unstimulated A431 cells (MFI against antibody concentration)
T1 construct: whole, on cells; One entry covers all human PD-L1-bearing cells; also called huPD-L1 on CHO cells (CHO-hPD-L1); PD-L1 on A431 cells
Protocol: (§1) Approximately 2.5×10⁵ A431 squamous cell carcinoma cells were plated in a final volume of 50 μL FACS buffer (phosphate buffered saline, 1% fetal bovine serum, 5 mM EDTA) in 96-well plates. 50 μL 2× Zombie Violet (BioLegend) were added to each well, and the plates were incubated 20-30 minutes at room temperature, protected from light. After incubation, 150 μL FACS buffer were added to each well. The plates were centrifuged at 500×g for 5 minutes. The supernatant was removed, and the cell pellet were resuspended in 200 μL FACS buffer. The wash procedure was repeated for a total of 2-3 washes. […] After the cells were incubated with the primary anti-PD-L1 antibody 1 hour on ice, protected from light, 150 μL FACS buffer were added to each well. The plates were then centrifuged, the supernatant was removed, and the cells were resuspended in 250 μL FACS buffer three times. After the third wash, the cells were resuspended in 100 μL goat anti-human IgG-Alexa Fluor 488 secondary antibody, and incubated for 30 minutes on ice, protected from light. After 3 washes as previously described, the cells were resuspended in 200 μL FACS buffer. The cells were then analyzed using a CytoFLEX flow cytometer.

[2] = molecular target: T2, 6xHis-tagged cyPD-L1 (cynomolgus monkey, UniProt Q9NZQ7 19-238 (human entry)); test: ELISA, plate-coated 6xHis cyPD-L1, OD 450 nm
T2 construct: The assay text says only '6xHis-tagged cyPD-L1'; also called cynomolgus PD-L1; not shown: 6xHis tag
T2 sequence (Q9NZQ7 other isoform, or with tags, fused parts or gaps): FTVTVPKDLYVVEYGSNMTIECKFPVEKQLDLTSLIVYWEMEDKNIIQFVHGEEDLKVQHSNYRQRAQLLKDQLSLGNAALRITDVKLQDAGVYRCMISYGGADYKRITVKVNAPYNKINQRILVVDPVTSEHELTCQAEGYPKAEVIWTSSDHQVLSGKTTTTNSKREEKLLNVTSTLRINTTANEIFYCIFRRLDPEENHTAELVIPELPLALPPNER
Protocol: (§2) Hybridoma supernatants were tested for binding to huPD-L1, cyPD-L1, and muPD-L1 by ELISA. Briefly, 30 μL 6xHis-tagged huPD-L1, cyPD-L1, or muPD-L1 (1 μg/mL in PBS) were immobilized in wells of a 96-well assay plate overnight at 4° C. After washing and blocking steps, 30 μL of antibody supernatant were added to the plate and incubated at room temperature for 1 hr. Bound human antibody was detected using horseradish peroxidase (HRP)-conjugated goat anti-human Fc (Invitrogen Cat. No. 109-035-097; diluted 1:5000) or goat anti-mouse Fc HRP (Invitrogen Cat. No. 115-035-071) as a control. Bound antibody was detected with 1-Step Ultra™ TMB-ELISA Substrate (ThermoFisher Scientific Cat. No. 34029). When the reaction was complete the reaction was stopped, and the plate was read at 450 nm.
(§3) Anti-PD-L1 antibodies, described in Example 1A and manufactured substantially as described in Example 1B, were tested for to huPD-L1 and cyPD-L1 by ELISA substantially as described in Example 1A, using 12 dilutions of antibody ranging from 1 ng/ml to 3 mg/mL.

[3] = molecular target: T3, 6xHis-tagged huPD-L1 (human, UniProt Q9NZQ7 19-238); test: ELISA, plate-coated 6xHis huPD-L1, OD 450 nm
T3 construct: also called human PD-L1 (RD Systems 9049-B7); extracellular domain of human PD-L1 fused to a His tag; not shown: 6xHis tag
T3 sequence (Q9NZQ7 19-238): as the sequence (Q9NZQ7 other isoform, or with tags, fused parts or gaps) above, with T33A, S34A, N62S, Q68R, R82Q, L173F, A185T, I192T, L215H counted along it
Protocol: as §2, §3

[4] = molecular target: T1, human PD-L1 expressed on cells; test: flow cytometry on unstimulated A431 cells, ratio of EC50 values
Protocol: as §1

T1 sequence (Q9NZQ7 19-290): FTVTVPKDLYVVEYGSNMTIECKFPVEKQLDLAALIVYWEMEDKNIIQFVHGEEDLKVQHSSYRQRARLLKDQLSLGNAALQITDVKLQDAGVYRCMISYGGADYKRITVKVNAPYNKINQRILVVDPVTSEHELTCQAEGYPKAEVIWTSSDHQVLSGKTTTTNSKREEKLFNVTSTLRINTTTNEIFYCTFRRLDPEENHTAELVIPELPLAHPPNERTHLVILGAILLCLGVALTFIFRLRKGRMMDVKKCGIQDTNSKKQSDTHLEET

B1: 1P9 (antibody, V domains shown)
VH: EVQLVESGGGLVQPGGSLRLSCAASGFTFSTYWMSWVRQAPGKGLEWVANIKQDGGERYYVDSVKGRFTISRDNAKSSLYLQMNSLRAEDTALYYCARLRLYSDYEDYWGQGTLVTVSS
VL: DIQMTQSPSSVSASVGDRVTITCRASQGISSWLAWYQQKPGKAPKLLIYSVSSLQSGVPSRFSGSGSGTDFTLTISSLQPEDSATYYCQQANSLPPTFGGGTKVEIK
notes: Recombinant full-length human antibody expressed in CHO K1 GS KO cells, with wild-type human Fc; also called anti-PD-L1 antibody 1P9; Unconj; 1P9
How did the EC50 [1] turn out when B1 was run?
Its EC50 is 0.0159 µg/mL.

What about the EC50 [2] of the same binder?
Its EC50 is 0.0338 µg/mL.

What about the EC50 [3] of the same binder?
Its EC50 is 0.0359 µg/mL.

And the “fold potency against avelumab” value [4]?
The value was 3.5 fold.

From patent US20250145716A1 (RAKUTEN MEDICAL, published 2025)
